Co-purified mScarlet fluorescence relative to WT Prom1 (% of WT Prom1) data for one substance are collected here from publication PMC11405016.

The target of the assay is Prominin 1 (Prom1) W795R, human S1 isoform, C-terminally Strep-tagged (human). The assay is described as follows: co-IP; EVs from co-transfected Expi293 cells, purified and solubilised with 1% DDM (25 mM HEPES-NaOH pH 7.8, 150 mM NaCl, 5 mM CaCl2); Prom1-Strep captured on StrepTactinXT 4Flow resin, 1 hr at 4°C; co-purified mNeonGreen or mScarlet fluorescence on the beads measured by montaged epifluorescence imaging, normalised to mTagBFP2-Strep on the resin.

“Prominin 1 (Prom1) W795R, human S1 isoform, C-terminally Strep-tagged (natural protein)” registered a co-purified mScarlet fluorescence relative to WT Prom1 (% of WT Prom1) of 60.
